Results published in paper PMC6785124, “Allosteric regulation of a prokaryotic small Ras-like GTPase contributes to cell polarity oscillations in bacterial motility” (PLoS Biology, 2019).

Key:
[1] = biological target: Myxococcus xanthus Mutual gliding motility A, MxMglA(His6) (Myxococcus xanthus) (UniProt Q1DB04); experiment: fluorescence polarisation; fluorescence anisotropy of 400 nM mant-GppNHp (m-GNP) mixed with 2 μM MxMglA or its mutant, titrated with MxMglB or MxMglB^ΔCt (concentration as MglB dimer); one site-specific binding fit
[2] = biological target: T1, Myxococcus xanthus Mutual gliding motility B, full-length MxMglB(His6) (Myxococcus xanthus), Q1DB03; experiment: crystal structure; MxMglA and MxMglB mixed 1:1 (MglB as monomer), 4 mg/ml each, in A50 buffer with 5 mM MgCl2 and 2 mM GTPγS; PEG 4000 or PEG 3350 with 200 mM ammonium sulphate; details: remark: other sources report otherwise
T1 chain: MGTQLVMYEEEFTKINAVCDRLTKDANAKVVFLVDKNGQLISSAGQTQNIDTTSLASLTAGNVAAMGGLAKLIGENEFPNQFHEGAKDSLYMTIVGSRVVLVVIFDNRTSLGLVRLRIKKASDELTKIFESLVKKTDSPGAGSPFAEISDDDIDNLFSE

[3] = biological target: T2, MxMglA^K, MxMglA K181A and K185A double mutant (Myxococcus xanthus, UniProt Q1DB04 1-195, K181A | K185A); experiment: fluorescence polarisation; fluorescence anisotropy of 400 nM mant-GppNHp (m-GNP) mixed with 2 μM MxMglA or its mutant, titrated with MxMglB or MxMglB^ΔCt (concentration as MglB dimer); one site-specific binding fit; details: both partners purified
T2 construct: Mutant of m1; source: E. coli BL21-DE3, purified (protocol similar to MxMglA(His6))
T2 sequence: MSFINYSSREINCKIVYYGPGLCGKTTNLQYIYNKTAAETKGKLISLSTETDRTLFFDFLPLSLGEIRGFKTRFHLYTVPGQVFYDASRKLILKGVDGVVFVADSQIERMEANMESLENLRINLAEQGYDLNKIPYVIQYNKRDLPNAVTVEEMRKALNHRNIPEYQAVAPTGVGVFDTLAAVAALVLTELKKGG

[4] = biological target: T3, MxMglA^L, MxMglA L64A and I67A double mutant (Myxococcus xanthus, UniProt Q1DB04 1-195, L64A | I67A); experiment: as above; details: both partners purified
T3 construct: MglA of Myxococcus xanthus with L64A and I67A (β2-β3 loop, interswitch region); Mutant of m1; source: E. coli BL21-DE3, purified (protocol similar to MxMglA(His6))
T3 sequence: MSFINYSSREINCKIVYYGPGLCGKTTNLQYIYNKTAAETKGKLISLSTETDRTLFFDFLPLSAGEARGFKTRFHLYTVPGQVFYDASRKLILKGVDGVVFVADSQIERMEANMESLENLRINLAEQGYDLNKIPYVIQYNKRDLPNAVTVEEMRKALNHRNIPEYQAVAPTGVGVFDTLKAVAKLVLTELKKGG

[5] = biological target: T4, MxMglA^Q82L, active site mutant of MxMglA (Myxococcus xanthus, UniProt Q1DB04 1-195, Q82L); experiment: as above; details: both partners purified
T4 construct: MglA of Myxococcus xanthus with Q82L (active site); Mutant of m1; source: E. coli BL21-DE3, purified (protocol similar to MxMglA(His6))
T4 sequence: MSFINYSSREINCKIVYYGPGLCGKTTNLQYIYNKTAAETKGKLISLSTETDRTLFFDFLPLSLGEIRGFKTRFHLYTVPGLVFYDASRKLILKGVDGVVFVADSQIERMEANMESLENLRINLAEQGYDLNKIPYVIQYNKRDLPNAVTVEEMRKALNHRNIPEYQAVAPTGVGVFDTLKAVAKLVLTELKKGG

[6] = biological target: T5, Myxococcus xanthus Mutual gliding motility A, MxMglA(His6) (Myxococcus xanthus, UniProt Q1DB04 1-195); experiment: as above; details: both partners purified
T5 construct: MglA, small Ras-like GTPase of Myxococcus xanthus; gene mglA amplified from genomic DNA (DSMZ 16526) and cloned into pHis17 between NdeI and BamHI; In the assays it carried m-GDP, m-GNP (mant-GppNHp) or GTPγS; source: E. coli BL21-DE3, purified (HisTrap, Superdex75); not shown: His6, C-terminal, kept
T5 sequence: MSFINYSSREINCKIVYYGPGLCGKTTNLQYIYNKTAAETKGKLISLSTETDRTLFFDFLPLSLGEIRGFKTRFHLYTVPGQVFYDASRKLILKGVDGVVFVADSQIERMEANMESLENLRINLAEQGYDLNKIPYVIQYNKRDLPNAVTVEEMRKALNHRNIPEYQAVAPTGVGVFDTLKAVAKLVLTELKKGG

[7] = biological target: T5, Myxococcus xanthus Mutual gliding …; experiment: fluorescence polarisation; fluorescence anisotropy of 400 nM mant-GDP (m-GDP) mixed with 2 μM MxMglA or its mutant, titrated with MxMglB or MxMglB^ΔCt (concentration as MglB dimer); one site-specific binding fit; details: both partners purified
[8] = biological target: T5, Myxococcus xanthus Mutual gliding …; experiment: crystal structure; MxMglA and MxMglB mixed 1:1 (MglB as monomer), 4 mg/ml each, in A50 buffer with 5 mM MgCl2 and 2 mM GTPγS; PEG 4000 or PEG 3350 with 200 mM ammonium sulphate; details: both partners purified

Molecule: MxMglB^ΔCt(His6), truncated MxMglB lacking the C-terminal helix (domain or fragment)
- Kd [1]: 290 nM

B1: Myxococcus xanthus Mutual gliding motility B, full-length MxMglB(His6) (natural protein, UniProt Q1DB03 1-159, looked up)
chain: MGTQLVMYEEEFTKINAVCDRLTKDANAKVVFLVDKNGQLISSAGQTQNIDTTSLASLTAGNVAAMGGLAKLIGENEFPNQFHEGAKDSLYMTIVGSRVVLVVIFDNRTSLGLVRLRIKKASDELTKIFESLVKKTDSPGAGSPFAEISDDDIDNLFSE
notes: Rbl/LC7 core residues 10-131, Ct-helix residues 147-157; also called MglB1 and MglB2 (the two protomers in the crystal); source: E. coli BL21-AI, purified (HisTrap, Superdex75); not shown: His6, C-terminal, kept
- stoichiometry N [2]: 2
- binding result [3]: binds
- binding result [4]: binds
- binding result [5]: binds
- Kd [6]: 100 ± 40 nM
- Kd [7]: 120 ± 30 nM

B2: selenomethionine-labeled MxMglB^I148M (natural protein, Myxococcus xanthus)
chain: MGTQLVMYEEEFTKINAVCDRLTKDANAKVVFLVDKNGQLISSAGQTQNIDTTSLASLTAGNVAAMGGLAKLIGENEFPNQFHEGAKDSLYMTIVGSRVVLVVIFDNRTSLGLVRLRIKKASDELTKIFESLVKKTDSPGAGSPFAEMSDDDIDNLFSE
modifications: selenomethionine-labeled
notes: MglB of Myxococcus xanthus with Ile148 mutated to methionine; construct without histidine tag; Made to confirm the registry of the Ct-helix; Probably a point mutant of full-length MglB
- binding result [8]: binds

B3: selenomethionine-labeled MxMglB^L156M (natural protein, Myxococcus xanthus)
chain: MGTQLVMYEEEFTKINAVCDRLTKDANAKVVFLVDKNGQLISSAGQTQNIDTTSLASLTAGNVAAMGGLAKLIGENEFPNQFHEGAKDSLYMTIVGSRVVLVVIFDNRTSLGLVRLRIKKASDELTKIFESLVKKTDSPGAGSPFAEISDDDIDNMFSE
modifications: selenomethionine-labeled
notes: MglB of Myxococcus xanthus with Leu156 mutated to methionine; construct without histidine tag; Made to confirm the registry of the Ct-helix; Probably a point mutant of full-length MglB
- binding result [8]: binds
